Experimental data: patent US20170101454A1 (Novo Nordisk, published 2017)
Starred links: 1 amine or outer side, 2 acyl side, 3 side chain; linkers in the order of their positions; H or OH if unused. Non-standard residues stand in square brackets, D forms with d. Groups on a side chain read outwards from the residue. No end group written: not given here. *: point of attachment. C18 diacid = O=C(O)CCCCCCCCCCCCCCCCC(=O)*; γGlu = O=C(O)[C@H](CCC(=O)[*:2])N[*:1]; Ac4c = NC1(C(=O)O)CCC1; AEEA = NCCOCCOCC(=O)O; Aib = CC(C)(N)C(=O)O

B1: N^ε28-[2-[2-[2-[[2-[2-[2-[[(4S)-4-carboxy-4-[[(4S)-4-carboxy-4-[[(4S)-4-carboxy-4-(17-carboxyheptadecanoylamino)butanoyl]amino]butanoyl]amino]butanoyl]amino]eth … (peptide)
peptide: H[Aib]QGTFTSDVSKYLESRRAQDFVQWLIK([AEEA-AEEA-γGlu-γGlu-γGlu-C18 diacid])T-NH2
modifications: N-terminus assumed
SMILES: CC[C@H](C)[C@H](NC(=O)[C@H](CC(C)C)NC(=O)[C@H](Cc1c[nH]c2ccccc12)NC(=O)[C@H](CCC(N)=O)NC(=O)[C@@H](NC(=O)[C@H](Cc1ccccc1)NC(=O)[C@H](CC(=O)O)NC(=O)[C@H](CCC(N)=O)NC(=O)[C@H](C)NC(=O)[C@H](CCCNC(=N)N)NC(=O)[C@H](CCCNC(=N)N)NC(=O)[C@H](CO)NC(=O)[C@H](CCC(=O)O)NC(=O)[C@H](CC(C)C)NC(=O)[C@H](Cc1ccc(O)cc1)NC(=O)[C@H](CCCCN)NC(=O)[C@H](CO)NC(=O)[C@@H](NC(=O)[C@H](CC(=O)O)NC(=O)[C@H](CO)NC(=O)[C@@H](NC(=O)[C@H](Cc1ccccc1)NC(=O)[C@@H](NC(=O)CNC(=O)[C@H](CCC(N)=O)NC(=O)C(C)(C)NC(=O)[C@@H](N)Cc1c[nH]cn1)[C@@H](C)O)[C@@H](C)O)C(C)C)C(C)C)C(=O)N[C@@H](CCCCNC(=O)COCCOCCNC(=O)COCCOCCNC(=O)CC[C@H](NC(=O)CC[C@H](NC(=O)CC[C@H](NC(=O)CCCCCCCCCCCCCCCCC(=O)O)C(=O)O)C(=O)O)C(=O)O)C(=O)N[C@H](C(N)=O)[C@@H](C)O
notes: also called Chem. 10; Chem 10
B2: N^ε28-[(4S)-4-carboxy-4-[[2-[2-[2-[[2-[2-[2-[[(4S)-4-carboxy-4-[[(4S)-4-carboxy-4-(17-carboxyheptadecanoylamino)butanoyl]amino]butanoyl]amino]ethoxy]ethoxy]acet … (peptide)
peptide: H[Ac4c]QGTFTSDLSKYLESRRAQEFVQWLIK([γGlu-AEEA-AEEA-γGlu-γGlu-C18 diacid])T-NH2
modifications: N-terminus assumed
SMILES: CC[C@H](C)[C@H](NC(=O)[C@H](CC(C)C)NC(=O)[C@H](Cc1c[nH]c2ccccc12)NC(=O)[C@H](CCC(N)=O)NC(=O)[C@@H](NC(=O)[C@H](Cc1ccccc1)NC(=O)[C@H](CCC(=O)O)NC(=O)[C@H](CCC(N)=O)NC(=O)[C@H](C)NC(=O)[C@H](CCCNC(=N)N)NC(=O)[C@H](CCCNC(=N)N)NC(=O)[C@H](CO)NC(=O)[C@H](CCC(=O)O)NC(=O)[C@H](CC(C)C)NC(=O)[C@H](Cc1ccc(O)cc1)NC(=O)[C@H](CCCCN)NC(=O)[C@H](CO)NC(=O)[C@H](CC(C)C)NC(=O)[C@H](CC(=O)O)NC(=O)[C@H](CO)NC(=O)[C@@H](NC(=O)[C@H](Cc1ccccc1)NC(=O)[C@@H](NC(=O)CNC(=O)[C@H](CCC(N)=O)NC(=O)C1(NC(=O)[C@@H](N)Cc2c[nH]cn2)CCC1)[C@@H](C)O)[C@@H](C)O)C(C)C)C(=O)N[C@@H](CCCCNC(=O)CC[C@H](NC(=O)COCCOCCNC(=O)COCCOCCNC(=O)CC[C@H](NC(=O)CC[C@H](NC(=O)CCCCCCCCCCCCCCCCC(=O)O)C(=O)O)C(=O)O)C(=O)O)C(=O)N[C@H](C(N)=O)[C@@H](C)O
notes: also called Chem. 38; Chem 38
B3: N^ε28-[2-[2-[2-[[2-[2-[2-[[(4S)-4-carboxy-4-[[(4S)-4-carboxy-4-[[(4S)-4-carboxy-4-(17-carboxyheptadecanoylamino)butanoyl]amino]butanoyl]amino]butanoyl]amino]eth … (peptide)
peptide: H[Aib]QGTFTSDLSKYLDLRRAQDFVQWLIK([AEEA-AEEA-γGlu-γGlu-γGlu-C18 diacid])T-NH2
modifications: N-terminus assumed
SMILES: CC[C@H](C)[C@H](NC(=O)[C@H](CC(C)C)NC(=O)[C@H](Cc1c[nH]c2ccccc12)NC(=O)[C@H](CCC(N)=O)NC(=O)[C@@H](NC(=O)[C@H](Cc1ccccc1)NC(=O)[C@H](CC(=O)O)NC(=O)[C@H](CCC(N)=O)NC(=O)[C@H](C)NC(=O)[C@H](CCCNC(=N)N)NC(=O)[C@H](CCCNC(=N)N)NC(=O)[C@H](CC(C)C)NC(=O)[C@H](CC(=O)O)NC(=O)[C@H](CC(C)C)NC(=O)[C@H](Cc1ccc(O)cc1)NC(=O)[C@H](CCCCN)NC(=O)[C@H](CO)NC(=O)[C@H](CC(C)C)NC(=O)[C@H](CC(=O)O)NC(=O)[C@H](CO)NC(=O)[C@@H](NC(=O)[C@H](Cc1ccccc1)NC(=O)[C@@H](NC(=O)CNC(=O)[C@H](CCC(N)=O)NC(=O)C(C)(C)NC(=O)[C@@H](N)Cc1c[nH]cn1)[C@@H](C)O)[C@@H](C)O)C(C)C)C(=O)N[C@@H](CCCCNC(=O)COCCOCCNC(=O)COCCOCCNC(=O)CC[C@H](NC(=O)CC[C@H](NC(=O)CC[C@H](NC(=O)CCCCCCCCCCCCCCCCC(=O)O)C(=O)O)C(=O)O)C(=O)O)C(=O)N[C@H](C(N)=O)[C@@H](C)O
notes: also called Chem. 9; Chem 9
B4: N^ε28-[(4S)-4-carboxy-4-[[2-[2-[2-[[2-[2-[2-[[(4S)-4-carboxy-4-[[(4S)-4-carboxy-4-(17-carboxyheptadecanoylamino)butanoyl]amino]butanoyl]amino]ethoxy]ethoxy]acet … (peptide)
peptide: H[Aib]QGTFTSDLSKYLDVRRAQDFVQWLIK([γGlu-AEEA-AEEA-γGlu-γGlu-C18 diacid])T-NH2
modifications: N-terminus assumed
SMILES: CC[C@H](C)[C@H](NC(=O)[C@H](CC(C)C)NC(=O)[C@H](Cc1c[nH]c2ccccc12)NC(=O)[C@H](CCC(N)=O)NC(=O)[C@@H](NC(=O)[C@H](Cc1ccccc1)NC(=O)[C@H](CC(=O)O)NC(=O)[C@H](CCC(N)=O)NC(=O)[C@H](C)NC(=O)[C@H](CCCNC(=N)N)NC(=O)[C@H](CCCNC(=N)N)NC(=O)[C@@H](NC(=O)[C@H](CC(=O)O)NC(=O)[C@H](CC(C)C)NC(=O)[C@H](Cc1ccc(O)cc1)NC(=O)[C@H](CCCCN)NC(=O)[C@H](CO)NC(=O)[C@H](CC(C)C)NC(=O)[C@H](CC(=O)O)NC(=O)[C@H](CO)NC(=O)[C@@H](NC(=O)[C@H](Cc1ccccc1)NC(=O)[C@@H](NC(=O)CNC(=O)[C@H](CCC(N)=O)NC(=O)C(C)(C)NC(=O)[C@@H](N)Cc1c[nH]cn1)[C@@H](C)O)[C@@H](C)O)C(C)C)C(C)C)C(=O)N[C@@H](CCCCNC(=O)CC[C@H](NC(=O)COCCOCCNC(=O)COCCOCCNC(=O)CC[C@H](NC(=O)CC[C@H](NC(=O)CCCCCCCCCCCCCCCCC(=O)O)C(=O)O)C(=O)O)C(=O)O)C(=O)N[C@H](C(N)=O)[C@@H](C)O
notes: also called Chem. 40; Chem 40
B5: N^ε28-[(4S)-4-carboxy-4-[[2-[2-[2-[[2-[2-[2-[[(4S)-4-carboxy-4-[[(4S)-4-carboxy-4-(17-carboxyheptadecanoylamino)butanoyl]amino]butanoyl]amino]ethoxy]ethoxy]acet … (peptide)
peptide: H[Aib]QGTFTSDVSKYLDARRAQDFVQWLIK([γGlu-AEEA-AEEA-γGlu-γGlu-C18 diacid])T-NH2
modifications: N-terminus assumed
SMILES: CC[C@H](C)[C@H](NC(=O)[C@H](CC(C)C)NC(=O)[C@H](Cc1c[nH]c2ccccc12)NC(=O)[C@H](CCC(N)=O)NC(=O)[C@@H](NC(=O)[C@H](Cc1ccccc1)NC(=O)[C@H](CC(=O)O)NC(=O)[C@H](CCC(N)=O)NC(=O)[C@H](C)NC(=O)[C@H](CCCNC(=N)N)NC(=O)[C@H](CCCNC(=N)N)NC(=O)[C@H](C)NC(=O)[C@H](CC(=O)O)NC(=O)[C@H](CC(C)C)NC(=O)[C@H](Cc1ccc(O)cc1)NC(=O)[C@H](CCCCN)NC(=O)[C@H](CO)NC(=O)[C@@H](NC(=O)[C@H](CC(=O)O)NC(=O)[C@H](CO)NC(=O)[C@@H](NC(=O)[C@H](Cc1ccccc1)NC(=O)[C@@H](NC(=O)CNC(=O)[C@H](CCC(N)=O)NC(=O)C(C)(C)NC(=O)[C@@H](N)Cc1c[nH]cn1)[C@@H](C)O)[C@@H](C)O)C(C)C)C(C)C)C(=O)N[C@@H](CCCCNC(=O)CC[C@H](NC(=O)COCCOCCNC(=O)COCCOCCNC(=O)CC[C@H](NC(=O)CC[C@H](NC(=O)CCCCCCCCCCCCCCCCC(=O)O)C(=O)O)C(=O)O)C(=O)O)C(=O)N[C@H](C(N)=O)[C@@H](C)O
notes: also called Chem. 39; Chem 39
B6: N^ε28-[2-[2-[2-[[2-[2-[2-[[(4S)-4-carboxy-4-[[(4S)-4-carboxy-4-[[(4S)-4-carboxy-4-(17-carboxyheptadecanoylamino)butanoyl]amino]butanoyl]amino]butanoyl]amino]eth … (peptide)
peptide: H[Aib]QGTFTSDLSKYLESRRARDFVQWLIK([AEEA-AEEA-γGlu-γGlu-γGlu-C18 diacid])T-NH2
modifications: N-terminus assumed
SMILES: CC[C@H](C)[C@H](NC(=O)[C@H](CC(C)C)NC(=O)[C@H](Cc1c[nH]c2ccccc12)NC(=O)[C@H](CCC(N)=O)NC(=O)[C@@H](NC(=O)[C@H](Cc1ccccc1)NC(=O)[C@H](CC(=O)O)NC(=O)[C@H](CCCNC(=N)N)NC(=O)[C@H](C)NC(=O)[C@H](CCCNC(=N)N)NC(=O)[C@H](CCCNC(=N)N)NC(=O)[C@H](CO)NC(=O)[C@H](CCC(=O)O)NC(=O)[C@H](CC(C)C)NC(=O)[C@H](Cc1ccc(O)cc1)NC(=O)[C@H](CCCCN)NC(=O)[C@H](CO)NC(=O)[C@H](CC(C)C)NC(=O)[C@H](CC(=O)O)NC(=O)[C@H](CO)NC(=O)[C@@H](NC(=O)[C@H](Cc1ccccc1)NC(=O)[C@@H](NC(=O)CNC(=O)[C@H](CCC(N)=O)NC(=O)C(C)(C)NC(=O)[C@@H](N)Cc1c[nH]cn1)[C@@H](C)O)[C@@H](C)O)C(C)C)C(=O)N[C@@H](CCCCNC(=O)COCCOCCNC(=O)COCCOCCNC(=O)CC[C@H](NC(=O)CC[C@H](NC(=O)CC[C@H](NC(=O)CCCCCCCCCCCCCCCCC(=O)O)C(=O)O)C(=O)O)C(=O)O)C(=O)N[C@H](C(N)=O)[C@@H](C)O
notes: also called Chem. 3; Chem 3
B7: N^ε28-[(4S)-4-carboxy-4-[[2-[2-[2-[[(4S)-4-carboxy-4-[[2-[2-[2-[[(4S)-4-carboxy-4-[[2-[2-[2-[[(4S)-4-carboxy-4-[[(4S)-4-carboxy-4-(17-carboxyheptadecanoylamino) … (peptide)
peptide: HXQGTFTSDYSRYLESRRARDFVQWLIKT
modifications: Acb at position 2; epsilon-N of Lys28 acylated with the substituent given in the name (17-carboxyheptadecanoyl-2xgGlu-Ado-gGlu-Ado-gGlu-Ado-gGlu-); C-terminal amide
notes: also called Chem. 36; Chem 36
B8: N^ε28-[(4S)-4-carboxy-4-[[2-[2-[2-[[(4S)-4-carboxy-4-[[2-[2-[2-[[(4S)-4-carboxy-4-[[2-[2-[2-[[(4S)-4-carboxy-4-[[(4S)-4-carboxy-4-(17-carboxyheptadecanoylamino) … (peptide)
peptide: HXQGTFTSDYSRYLESRRARDFVQWLIKT
modifications: Aib at position 2; epsilon-N of Lys28 acylated with the substituent given in the name (17-carboxyheptadecanoyl-2xgGlu-Ado-gGlu-Ado-gGlu-Ado-gGlu-); C-terminal amide
notes: also called Chem. 37; Chem 37

The binders below were run against T1, human glucagon receptor (human, UniProt P47871 26-477) (assay: displacement of [125I]-glucagon from BHK membranes with human glucagon receptor, SPA, no serum albumin).
T1 construct: whole, on cells; reporter assay used whole cells; also called hGCGR
T1 sequence (P47871 26-477): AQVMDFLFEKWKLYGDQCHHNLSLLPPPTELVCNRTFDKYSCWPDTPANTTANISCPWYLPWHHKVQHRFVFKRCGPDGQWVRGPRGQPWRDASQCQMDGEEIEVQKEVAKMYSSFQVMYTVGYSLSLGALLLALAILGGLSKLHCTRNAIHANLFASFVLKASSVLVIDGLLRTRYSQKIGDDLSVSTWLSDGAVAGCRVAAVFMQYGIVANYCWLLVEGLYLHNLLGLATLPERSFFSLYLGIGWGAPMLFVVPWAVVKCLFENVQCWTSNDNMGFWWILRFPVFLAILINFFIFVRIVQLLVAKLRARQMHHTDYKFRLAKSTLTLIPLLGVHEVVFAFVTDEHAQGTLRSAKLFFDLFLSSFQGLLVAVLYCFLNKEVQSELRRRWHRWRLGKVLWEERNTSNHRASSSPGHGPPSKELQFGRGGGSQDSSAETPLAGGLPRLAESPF

Row | Binder | IC50 [nM]
1 | B1 | 42.4
2 | B2 | 2.7
3 | B3 | 17.3
4 | B4 | 7.1
5 | B5 | 4.6
6 | B6 | 31.6
7 | B7 | 6.5
8 | B8 | 6.6

Each binder was assayed against T1, human glucagon receptor (assay: cell-based or functional assay).

Row | Binder | GlucagonR EC50 (pM), [Assay (I)(b)], CRE luciferase reporter, BHK cells [pM]
9 | B1 | 748
10 | B2 | 12
11 | B3 | 44
12 | B4 | 30
13 | B5 | 24
14 | B6 | 245
15 | B7 | 22
16 | B8 | 98

The binders below were run against T2, human GLP-1 receptor (human, UniProt P43220 24-463) (assay: cell-based or functional assay).

Row | Binder | GLP-1R EC50 (pM) [Assay (I)(a)], CRE luciferase reporter, BHK cells [pM]
17 | B1 | 3
18 | B2 | 2
19 | B3 | 10
20 | B4 | 3
21 | B5 | 1
22 | B6 | 2
23 | B7 | 4
24 | B8 | 4

What follows are binders tested against T2, human GLP-1 receptor (assay: displacement of [125I]-GLP-1-(7-36)NH2 from BHK membranes with human GLP-1R, SPA, no serum albumin).

Row | Binder | IC50 [nM]
25 | B1 | 0.1
26 | B2 | 0.3
27 | B3 | 0.5
28 | B4 | 1.2
29 | B5 | 0.1
30 | B6 | 0.1
31 | B7 | 1.5
32 | B8 | 1.5
